For series [1], the target named is T1, recombinant His-tagged Der p1 (dust mite, UniProt P08176 99-320, limits assumed).
T1 sequence (looked up): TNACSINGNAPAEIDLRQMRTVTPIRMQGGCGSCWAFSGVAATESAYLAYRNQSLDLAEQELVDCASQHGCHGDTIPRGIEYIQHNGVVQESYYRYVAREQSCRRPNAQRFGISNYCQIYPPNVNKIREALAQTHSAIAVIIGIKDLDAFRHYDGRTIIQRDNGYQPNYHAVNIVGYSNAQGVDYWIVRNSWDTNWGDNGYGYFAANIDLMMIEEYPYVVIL
The series is described as follows: ELISA, Der p1-His 2 µg/mL, repeat 1.

The target in series [2] is T1, recombinant His-tagged Der p1. The series is described as follows: ELISA, Der p1-His 2 µg/mL, repeat 2.
Series [3] shares this target. The series is described as follows: ELISA, Der p1-His 10 µg/mL, repeat 1. On the technique in general: An ELISA detects its analyte on a solid surface through an enzyme-linked reagent.
The target is the same in series [4]. As to the kind of experiment: ELISA, Der p1-His 10 µg/mL, repeat 2.
The target is the same in series [5]. The series is described as follows: ELISA, Der p1-His 0.4 µg/mL, repeat 1.
For series [6] the target is unchanged. As to the kind of experiment: ELISA, Der p1-His 0.4 µg/mL, repeat 2.
Series [7] has the same target. The series is described as follows: ELISA, Der p1-His 0.08 µg/mL, repeat 1.
The target is the same in series [8]. As to the kind of experiment: ELISA, Der p1-His 0.08 µg/mL, repeat 2.
The target is the same in series [9]. The series is described as follows: ELISA, Der p1-His 0.016 µg/mL, repeat 1.
Series [10] has the same target. As to the kind of experiment: ELISA, Der p1-His 0.016 µg/mL, repeat 2.
For series [11] the target is unchanged. As to the kind of experiment: ELISA, Der p1-His 0.0032 µg/mL, repeat 1.
The target is the same in series [12]. The series is described as follows: ELISA, Der p1-His 0.0032 µg/mL, repeat 2.
Series [13] shares this target. The series is described as follows: ELISA, Der p1-His 0.00064 µg/mL, repeat 1.
For series [14] the target is unchanged. The series is described as follows: ELISA, Der p1-His 0.00064 µg/mL, repeat 2.
Series [15] deals with Fel D1. As to the kind of experiment: ELISA binding assay of anti-Fel d1 VHH clones on Fel D1 epitopes. On the set-up: species or system cat. On the procedure:
(§1) 2 microgram per milliliter (μg/mL) target antigen is coated in a 96-well plate and ELISA assay is performed after incubation with candidate VHHs. The binding EC50 of each clone is calculated using Prism GraphPad. The positive control antibody is involved as an internal control.
Four distinct epitopes of Fel D1 were selected to be used for further identification. Peptides were synthesized for the four epitopes for VHH identification.
(§2) Isolated VHH clones were further validated by performing an ELISA assay as described in Example 1. Binding results are shown in FIG. 15B-15D for the epitope of SEQ ID NO: 61. Binding results are shown in FIG. 16 for the epitope of SEQ ID NO: 59. Binding results are shown in FIG. 17A-17E for the epitope of SEQ ID NO: 60. Binding results are shown in FIG. 18 for the epitope of SEQ ID NO: 58.

Series [16] is described as follows: Thermostability (Tm, Tonset, Tagg) by Nanotemper DSF. The format is physicochemical. Set-up: key to Tm2 / Tagg / Tm1 / Tm / Tm3 / Tonset / Tonset ø (mean) / Tagg ø (mean): temperatures in °C. The settings on record: for Tm: single melting point. The gist of the method:
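Isolated VHH clones were heated from 20 °C to 95 °C at 1 °C/min using DSF. Tm, Tonset and Tagg were derived from the thermal curves. Where several melting transitions occurred, each was reported in order (Tm1, Tm2, etc.).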

Series [17] addresses T2, Fel D1 (Felis catus, UniProt P30438+P30440).
T2 sequence (P30438 23-92): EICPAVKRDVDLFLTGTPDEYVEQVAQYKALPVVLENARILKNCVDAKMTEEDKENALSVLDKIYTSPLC
T2 sequence (P30440 18-109): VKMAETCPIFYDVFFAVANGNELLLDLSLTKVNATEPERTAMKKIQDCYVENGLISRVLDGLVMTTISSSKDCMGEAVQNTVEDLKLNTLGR
As to the kind of experiment: Size Exclusion Chromatography test of Fel D1 neutralization (tetramer formation). Set-up: species or system cat. The settings on record: 30 ug Fel D1 and 30 ug 1-C3 pre-incubated at 37° C. for 4 hours. As to the method: Functional validation was also performed testing the capability of an exemplary clone to neutralize Fel D1. Fel D1 is naturally a weaker tetramer that causes allergic reactions by causing cross-linking of neighboring IgEs on immune cells (mast cells, etc.). […] On the SEC, there are two distinct peaks for pure Fel D1, the earlier peak representing the tetramer and the laker peak representing the monomer (FIG. 20A). Conditions for this SEC graph are (Column: Zenix-C SEC-80, 7.8×300 mm, 3 um, 80 Å; Sample: Fel D1; Sample Volume: 30 μL (25 ug); Mobile phase: 150 mM phosphate buffer, pH 7.0; Flow rate: 0.7 mL/min; Detection: UV 280 nm; System: Thermo Vanquish Flex.
Conditions for this SEC graph are (Column: Zenix-C SEC-80, 7.8×300 mm, 3 um, 80 Å; Sample: 1-C3; Sample Volume: 30 μL; Mobile phase: 150 mM phosphate buffer, pH 7.0; Flow rate: 0.7 mL/min; Detection: UV 280 nm; System: Thermo Vanquish Flex.
When clone C3 and Fel D1 are incubated together for 4 hours at 37° C. and then assayed, the two Fel D1 peaks were no longer detected and only the C3-Fel D1 complex is detected. […]

Another series addresses T3, recombinant Fel d1-His (Felis catus, UniProt P30438+P30440).
T3 construct: His; made in house
T3 sequence (P30438 23-92): T2 sequence (P30438 23-92)
T3 sequence (P30440 18-109): T2 sequence (P30440 18-109)
As to the kind of experiment: Recombinant Fel D1 His binding assay with positive control antibodies. Set-up: species or system cat. On the procedure: In order to obtain single variable domain on heavy chain, i.e., VHH, specific for cat allergen Fel D1, a recombinant His-tagged Fel D1 was prepared, which reached high purity, as shown via SDS-Page Western blotting in FIG. 14. To confirm this, an ELISA was performed measuring optical density when the recombinant Fel d1-His is incubated with two known Fel D1 antibodies which are summarized in Table 18. As summarized in Table 19, the recombinant Fel d1-His was effectively bound by both antibodies.

Series [18] concerns the target T4, Fel D1 epitope peptide SDAB22110-115-28AA-2 (cat).
T4 peptide: ENARILKNCVDAKM
As to the kind of experiment: ELISA on Fel D1 epitope peptide; the row names two epitopes (SEQ ID NO: 61 and 58) and one EC50. On the procedure:
as §1, §2

The mark [19] stands for this setting: anti-Fel d1 VHH, in °C (unit assumed).
The mark [20] stands for this setting: Average of two replicates, anti-Fel d1 VHH.
[21] abbreviates: Average of two replicates, anti-Fel d1 VHH, in °C (unit assumed).
Where [22] appears, read: Replicate 1, in °C (unit assumed).
Setting [23] is: Replicate 2, in °C (unit assumed).

Several values for one entry are separate records, joined by “and”; a condition that tells them apart may be missing. Identical values can stand only once.

On to known Der p1 antibody (clone 10B9), for which the OD at 450 nm in [1] stood at 4.03 OD; in series [2], 4.31 OD; in series [3], 4.37 OD; in [4] it was 4.4 OD; in series [5] it was 1.8 OD; in series [6], 1.87 OD. For the same molecule, the OD at 450 nm turned out to be 0.58 OD in series [7]; 0.49 OD in series [8]; 0.2 OD in series [9]; 0.17 OD in series [10]; 0.25 OD in series [11]; 0.12 OD in series [12]. Further, the results for the OD at 450 nm in series [13] and in series [14] were 0.13 OD and 0.12 OD, respectively.

B1: SDAB22110-1-1-C3: anti-Fel d1 VHH clone, SEQ ID NO: 49 (protein)
VHH: AVQLVESGGGLVQPGGSLRLSCAASGFTFTNYAMRWYRQAPGKERELVAAIPTSGGYTYTADSVKGRFTISRDNAKNTVYLQMNSLKPEDTAVYYCYGLRTLSDYYWGQGTQVTVSS
Broadly, the EC50 is the concentration needed to bring the measured effect to its halfway point. Take B1: on Fel D1 [15] (Epitope Recognized ENARILKNCVDAKM (SEQ ID NO: 61), VAQYKALPVVLENA (SEQ ID NO: 58)), the EC50 came out at 0.352 µg/mL. The Tagg in series [16] (anti-Fel d1 VHH) is given as 58.93. Moreover, the Tm in [16] (setting [19]) is on record as 66.50. Further, the “Fel D1 tetramer formation (SEC)” value with Fel D1 [17] is recorded as “preventing the Fel D1 tetramer from forming”.

B2: 18VH + 378VL: known Fel D1 positive control antibody, heavy chain SEQ ID NO: 66, light chain SEQ ID NO: 65 (antibody, V domains shown)
VH: EVQLVESGGGLVKPGGSLRLSCAASGFTFRNYNINWVRQAPGKGLEWVSLISGSSSYIYYADSVKGRFTVSRDNAKNSLYLQMNSLRAEDTAVYYCARRTLSYYVMDVWGQGTTVTVSS
VL: DIQLTQSPSFLSASVGDRVTITCWASQGISSYLAWYQQKPGKAPKLLIYSASTLQSGVPSRFSGSGSGTEFTLTISSLQPEDFATYYCQQLNSYPFTFGPGTKVDIK
For the molecule B2, the “OD450 Using Positive Control” value is 4.47 and 4.44 in the series with recombinant Fel d1-His (Volume of Fel D1-His 10 μL (concentration ~1 μg/μL)); 4.55 and 4.53 with recombinant Fel d1-His (Volume of Fel D1-His 50 μL (concentration ~1 μg/μL)); 4.60 in the series with recombinant Fel d1-His (Volume of Fel D1-His 100 μL (concentration ~1 μg/μL)).

B3: SDAB22110-3-1-D9-1: anti-Fel d1 VHH clone, SEQ ID NO: 52 (protein)
VHH: AVQLVESGGGLVQPGGSLRLSCIISGFTSVSYSIVWFRQAPGKGREGVSCIGSSGGSTDYIDSVKGRFTISRDSAKNTVYLQMDCLKPEDTAVYYCAALRDVYRLCVIDYMNNDYWGQGTQVTVSS
Regarding B3, the 50% effective concentration (EC50) on Fel D1 [15] (Epitope Recognized FAVANGNELLLDLS (SEQ ID NO: 59)) is 12.940 µg/mL. Moreover, in [16] (setting [20]), the “Tagg ø (mean)” value came out at 42.78 and the “Tonset ø (mean)” value is 32.74. For the same molecule, in series [16] (setting [21]), the “Tm ø (mean), first melting point (Tm1)” value came out at 41.13 and the “Tm ø (mean), second melting point (Tm2)” value is 52.88. In series [16] (Replicate 1), the Tagg stood at 42.76 and the Tonset amounted to 32.57. Besides, in series [16] (setting [22]), the “Tm, first melting point (Tm1)” value is reported as 41.01 and the “Tm, second melting point (Tm2)” value was found to be 52.86. In addition, in series [16] (Replicate 2), the Tagg was 42.80 and the Tonset stood at 32.90. Moreover, in series [16] (setting [23]), the “Tm, first melting point (Tm1)” value turned out to be 41.25 and the “Tm, second melting point (Tm2)” value came out at 52.91. Besides, the Tagg in [16] (anti-Fel d1 VHH) is 42.30. Also, the Tm in series [16] (setting [19]) stood at 47.50.

B4: SDAB22110-1-1-C3 (VHH)
VHH: QLQLVESGGGLVQPGGSLRLSCEASGFTFKYYTMSWYRQAPGKERELVATITNGDRTNYADSVKGRFTISRDNAKNTLYLQMNSLKPYDTAVYYCNRHLPLLQIWGQGTQVTVSS
notes: Expressed from a prokaryotic vector
In turn, B4 gave a 50% effective concentration (EC50) in [18] of 0.352 µg/mL.
